Measurements reported in the nanobody polyreactivity screen of Harvey et al. (2022).

Assay: yeast display, Sf9 membrane polyspecificity reagent, FACS + sequencing; frameworks hold sequencing errors
Outline: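 Polyreactivity labels are assigned by the sorting gate from which each nanobody was recovered. The gates were low and high (top ~1%), set on anti-HA fluorescence for expression and streptavidin fluorescence for reagent binding. Before sorting, galactose-induced (36–48 hours) yeast display cells were stained for 1 hour at 4 °C with 10% biotinylated, detergent-solubilized Sf9 membrane reagent.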

Sequence | polyreactivity (PSR sort gate)
QVQLVESAGGLVQAGGSLRLSCAASGRTFGGYAMGWYRQAPGKERELVASITSGGSTYYADSVKGRFTISRDNAKNTVYLEMNSLKPEDTAVYYCAADTYFETSTRAIPSNDYWGQGTQVTVSS | low polyreactivity
QVQLVESAGGLVQAGGSLRLSCAASGRTFIGNAMGWYRQAPAKERELVAGISYRGGSTYYADSVKGRFSFSRDNAKNTVYLQMNSLKPEDTAVYYCAAPGRGGYYYWGQGTQVTVSS | high polyreactivity
QVQLVESAGGLVQAGGSLRLSCAASGRTFTCNAMGWYRQAPGKERELVAAISYSGGSTYYADSVKGRFTISRDNAKNTVYLQMNSLKPEDTAVYNCAVLGTPYGLNDYWGQGTQVTVSS | high polyreactivity
QVQLVESAGGLVQAGGSLRLSCAASGRTLTFKTMGWYRQAPGKERELVAGISYSGGSTYYADSVKGRFTISRDNAKNTVYLQMNSLKPEDTAVYYCNAVRVYRRRYDSWGQGTKVTVSS | high polyreactivity
QVQLVESAGGLVQAGGSLRLSCAASGSIFPFYAMRWYRQAPGKERELVATINFSGGSTYYADSVKGRFTISRDNAKNTVYLQMNSLKPEDTAVYYCAASYGAKYIVLYDYWGQGTQVTVSS | low polyreactivity
QVQLVESAGGLVQAGGSLRLSCAASGSIFPWNAMGWYRQAPGKERELVAAISYSGTRTYYADSVKGRFTISRDNAKNTVYLQMNSLKPVDTAVYYCNARGYTRSYVKYDYWGQGTQVTVSS | high polyreactivity
QVQLVESAGGLVQAGGSLRLSCAASGSIFQGNARGWYRQAPGKERELVAAISQSGGRTYYADSVKGRFTISRDNAKNTVYLQMISLKPEDTAVYYCNTTKVYRLRFDYWGQGTQVTVSS | low polyreactivity
QVQLVESAGGLVQAGGSLRLSCAASGSIFSTYVMGWYRQAPGKERELVAAISRRGGSTYYADSVKGRFTISRDNAKNTVYLQMNSLKPEDTAVSYCAADGTVGRRDYWGQGTQVTVSS | high polyreactivity
QVQLVESAGGLVQAGGSLRLSCAASGSIFYGNAMGWYRQAPGKERELVASITYSGGTTNYADSVKGRFTISRDTAKNTVYLQMNSLKPEDTAVYYCAADAIPDSVWYWEYDYWGQGTQVTVSS | low polyreactivity
QVQLVESAGGLVQAGGSLRLSCAASGSIFYYYAMGWYRQAPGKERELVATISSSSGSTYYADSVKGRFTISRDNAKYTVYLQMNRLKPEDTAVYYCATVSGSVWQRWVYANYDFWGQGTQVTVSS | low polyreactivity
QVQLVESAGGLVQAGGSLRLSCAASGSIIADNAMGWDRQSPGTERELVAAITGGDSTYYADSVKGRFTISRDNAKNTVYLQMNSLKPEDTAVYYCNADRFRGRTVDGDYWGQGTQVTVSS | low polyreactivity
QVQLVESAGGLVQAGGSLRLSCAASGSISGYAMGWYRQAPGKQRELVAAISRRGGSTYYADSVKGRFTISRDNEKNTVYLQMNSLKPEDTAVYFCAADPYTRQPNSDRYYWGQGTQVTVSS | high polyreactivity
QVQLVESAGGLVQAGGSLRLSCAASGSTFDYYAMGWYRQAPGKERELVASITWGDGSTYYADSVKGRFTISRDNAKNTVYLQMNSLKPEDTAVYYCNADDTQLESYAPGHGYDYWGQGTQVTVSS | low polyreactivity
QVQLVESAGGLVQAGGSLRLSCAASGSTFPFYAMGWYRPAPGKERELVAAISASGVRTYYADSVKGRFTISRDNAKNTVYLQMNSLKPEDTAVDYCNRVYSTSRITQYEFDYWGQGTQVTVSS | low polyreactivity
QVQLVESAGGLVQAGGSLRLSCAASGSTFPKYAMGWSRQAPGKERELVASISVTTGSTYYADSVKGRFTISRDNAKNTVYLQMNSLKPEDTAVYYCAKRTYSRKFRGAYNYGGQGTQVTVSS | high polyreactivity
QVQLVESAGGLVQAGGSLRLSCAASGSTFQSYAMGWYRQAPGKDRELVAAISSGGITYYADSVKGRFTISRDNAKNTVYLQMTSLIPEDTAVYYCAKVPTYLIYNRYSRYDYWGQGTQVTVSS | low polyreactivity
QVQLVESAGGLVQAGGSLRLSCAASGSTFSRYAMGWSRQAPGNERELVAAISSGGNTYDADSVKGRFTISRDNAKNTVYLQMNSLKPEDTPVYYCIADRYTWYPWTKCFYYWGQGTHVTVSS | high polyreactivity
QVQLVESAGGLVQAGGSLRLSCAASGSTFSYNAMGWYRQAPGKEREFVAAISSRGGNTFYADSVKGRFTISRDNAKNTVYLQMNSLKPEDTAVYYCAARFNRPYDYWGQGTQVTVSS | low polyreactivity
QVQLVESAGGLVQAGGSLRLSCAASGSTFYFNAMGWYRQAPGKERELVAAISGGGGTNYADSVKGRFTISRDNAKNTVYLQMTSLKPEDTAVYYCAARNRGLRLSNYFGGNYNRDYWGQGTQVTVSS | low polyreactivity
QVQLVESAGGLVQAGGSLRLSCAASGSTFYLNAMGWYRQAPGKERELVATINSSGSTYYADSVKGRFTISRDNAKNTVYLQMNSLKPEDTAVYYCNTVDSYVRSDYWGQGTQVPVSS | low polyreactivity
QVQLVESAGGLVQAGGSLRLSCAASGSTFYRYAMGGSRQAPGKERELVAAISSSGGRTYYADSVKGRFTISRDNAKNTVYLQMNSLKPEDTAVYFCATRVGDFHRGKRKRYEYWGQGTQVTVSS | high polyreactivity
QVQLVESAGGLVQAGGSLRLSCAASGSTFYRYAMGWYRQAPGKERELVAAISTRGGSTYYADSVKGRFTISRDNAKNTVYLQMNSLKPEDTAVYYCAAKSGSPDDYDYWGQGTQVTVSS | high polyreactivity

Sequence | polyreactivity (PSR sort gate)
QVQLVESAGGLVQAGGSLRLSCAASGSTFYTYAMGWYRQAPGKERELVAAISWSGGSTYYADSVKGRFTISRDNAKNSVYLQMNSLKPEDTAVYYCAARRVKYISLDYWGQGTQVTVSS | low polyreactivity
QVQLVESAGGLVQAGGSLRLSCAASGSTYTSYAMGWYRQAPGKERELVAAITRNGGTTYYADSVKGRFTLSRDNAKNTVYLQMNSLKPEDTAVYYCNAPHYYYITSDRRFDYWGQGTQVTVSS | low polyreactivity
QVQLVESAGGLVQAGGSLRLSCAASGTIFALYAMGWYRQAPGKERELVARITRGGGSTYYADSVKGRFTISRDNAKNTVYLQMNSLKPEDTAVYYCAAARWSQYRTWMNYWGQGTQVTVSS | high polyreactivity
QVQLVESAGGLVQAGGSLRLSCAASGYIFSDNTMGWYRQAPGKERELVAVITSGTSTSYADSVKGRFTISRDNAKNTVYLQMNSLKPEDSAVYYAARTGQYKTYGEYDYWGQGTQVTVSS | low polyreactivity
QVQLVESAGGLVQAGGSLRLSCAATGLIFKYYAMVWYRQAPGKEREMVATITRGGGSTYYADSVKGRFTISRDNAKNTVYFQMNSLKPEDTAVYYCAKRTSWKYGYWGQGTQVTVSS | high polyreactivity
QVQLVESAGGLVQAGGSLRLSCADSGSIFRYYAMGWYRQAQGQERELVAAISYSGGRTYYADSVKGRFTISRDNAKNTVYLQMNSLKPEDTAVYYCNAGAGKRGYDYWGQGTQVTVSS | low polyreactivity
QVQLVESAGGLVQAGGSLRLSCAPSGFIFKHNAMGWYRQAPGKERECVAAISWSGDSTYYADSVKGRFTISRDNAKNTVYLQMNSLKPEDTAVYYCAAVRALRKVRDYYYWGQGTQVTVSS | high polyreactivity
QVQLVESAGGLVQAGGSLRLSCAPSGSIFVAYAMGGYLQAPGKERELVAAISWRSGSTYYADSVKGRFTISRDNAKNTVYLQMNSLKPEDTAVYYSAAKQDQDYYWGQGTQVTVSS | low polyreactivity
QVQLVESAGGLVQAGGSLRLSCPASGGIFSWYHMGWYRQEPGKERELVAAISWSGGSTYYADSVKGRFTISRDNAKNTVYLLMNSLKPEDTAVYYCADYTADDYDYWGQGTQVTVSS | high polyreactivity
QVQLVESAGGLVQAGGSLRLSCPASGRTSVINAMGWYRQSPGKERELVAAISSDGITNYADSVKGRFTISRDNAKNTVYLQMISLKPEDTAVYYCAAEWYYVYIAPYDYWGQGTQVTVSS | low polyreactivity
QVQLVESAGGLVQAGGSLRLSCYASGSIFTRNAMGWYRQAPGKERELVASISYSGGNTYYADSVKGRFTISRDNAKNTVYLQMNSLKPEDTAVYYCAALYSVYRDGYYWGQGTQVTVSS | high polyreactivity
QVQLVESAGGLVQAGGSLRLSSDASGFTFYRYAIGWYIQAPGKEREFVAAISWRGTSTYYADSVKGRFKISRDNANNTVYLQMNSLKPEETAVYYCTARRDICWGYHMDYWGQGTQVTVSS | high polyreactivity
QVQLVESAGGLVQAGGSLSLICAASGIIFGGNAMGWSRQAPGKERELVAAISRSGGSTYYADSVKGRFTISRDNAKNTVYLQMTSLKPEDTAVYYCNAYYRYFRSIYDSCGQGTQVTVSS | high polyreactivity
QVQLVESAGGLVQAGGSLSLSCAASGFIFDGYAMGWYRQAPGKERELVAAINFSGGSTYYADSVKGRFTISRDNAKNTVYLQMNSLKPEDTSVYYCNADLEWYWVQFGYGYWGQGTQVTVSS | low polyreactivity
QVQLVESAGGLVQAGGSLSLSCAASGRIFTDYAMGWYRQAPGKERELVARISRSDGSTYYADSVKGRFSISRDNAKNNVYLQMNSLKAEDTAVYYCAAQWTDGRRDHWWDKGFYYWGLGTQVTVSS | low polyreactivity
QVQLVESAGGLVQAGGTLSLSCAASGSTFYNYAMGWYRQAPGTETELVAAISSGGSTNYADSVKGRFTISRDNAKNTVYLQMNSLKPEDTAVYYCARRHRVYPSRIGHDYWGQGTQVTVSS | low polyreactivity
QVQLVESAGGLVQAGVSLRLSCDASGRIFRHNTMGWYRQAPGKERELVAAIRYSGGRTYYADSVKGRFTISRDNAKNTVYLQMNSLKPEDTAVYYCAKDTGQGYYWGQGTQVTVSS | high polyreactivity
QVQLVESAGGLVQARVSLRLSSAASGRTIPTYTMGWYRQAPGKERELVAAITRGGSTKYADSVKGRFTISRDNAKNTVYLQMNSLKPEDTAVYYCAAVYRYRHSFAYYRHEMDYWGLGTQVTVSS | low polyreactivity
QVQLVESAGGLVQEGGSLRLSCAASGSISAPYAMGWYRQAPGKERELVAAISWRGGRTYYADSVKGRFTISRDNAKNTVYLQMNSLKTEDTAVDYCAAKFRLGQFDYDYWGQGTQVTVSS | high polyreactivity
QVQLVESAGGVVQAGGSLRKSCAASLGWYRQAPGKERELVATITSDAGTNYADSVKGRFTISRDNAKNTVYLQMNSLKPEDTAVYYCAATPPYRVYGVNYWGQGTQVTVSS | low polyreactivity
QVQLVESARGLVQAGGSLRLRCAASGSTLSVYVMGWYRQAPGKERELVAAITRGGSTNYADSVKGRFTISRDNAKNTVYLQINSLNPEDTAVYYCAARSFVYYHHGEGSRSGRYYYWGQGTQVTVSS | high polyreactivity
